What was measured:
[1] = target: T1, TLR4 (Homo sapiens, UniProt O00206); assay: NF-κB luciferase reporter in HEK293 cells expressing TLR4, LPS stimulation; type: cell-based; conditions: for LPS-dependent NF-κB activation conferred by soluble protein: culture supernatants added to HEK293 cells stably transfected with TLR4 and NF-κB luciferase reporter; for LPS-mediated NF-κB activation on transient expression: plasmid transfected with CD14 into HEK293 TLR4/NF-κB reporter cells, LPS 250 ng/ml 6 h
T1 construct: expressed in transfected cells; host or cells: HEK293
T1 sequence (O00206 24-839): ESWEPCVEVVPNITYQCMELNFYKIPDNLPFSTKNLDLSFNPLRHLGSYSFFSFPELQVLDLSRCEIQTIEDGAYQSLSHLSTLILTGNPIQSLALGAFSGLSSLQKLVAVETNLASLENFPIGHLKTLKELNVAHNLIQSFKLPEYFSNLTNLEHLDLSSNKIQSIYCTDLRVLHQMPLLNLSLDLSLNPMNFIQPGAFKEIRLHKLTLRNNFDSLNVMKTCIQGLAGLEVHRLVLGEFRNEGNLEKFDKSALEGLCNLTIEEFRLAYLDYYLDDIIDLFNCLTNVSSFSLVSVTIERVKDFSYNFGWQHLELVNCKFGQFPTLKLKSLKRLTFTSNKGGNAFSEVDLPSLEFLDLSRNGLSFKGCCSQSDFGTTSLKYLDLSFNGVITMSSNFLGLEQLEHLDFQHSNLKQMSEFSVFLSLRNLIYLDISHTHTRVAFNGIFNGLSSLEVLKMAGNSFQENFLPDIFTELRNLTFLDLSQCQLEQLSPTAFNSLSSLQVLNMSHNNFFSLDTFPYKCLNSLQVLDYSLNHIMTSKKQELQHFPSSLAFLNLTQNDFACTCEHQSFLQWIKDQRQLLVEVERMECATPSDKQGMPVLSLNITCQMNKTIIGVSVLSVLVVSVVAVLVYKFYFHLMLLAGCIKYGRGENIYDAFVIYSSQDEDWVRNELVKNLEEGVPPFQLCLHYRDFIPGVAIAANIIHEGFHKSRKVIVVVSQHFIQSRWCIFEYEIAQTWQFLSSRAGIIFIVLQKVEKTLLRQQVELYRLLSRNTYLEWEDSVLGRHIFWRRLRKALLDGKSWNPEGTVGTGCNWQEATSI
Procedure: (§1) (A) HEK-293 cells stably transfected with TLR4 and a NF-κB reporter gene were treated with supernatants containing either MD-2 or MD-2s as described in the examples herein. Cells were left untreated or stimulated with LPS for 24 h. Mean relative stimulation of luciferase activity±S.D. for a representative experiment, each performed in triplicate, is shown. (B) HEK-293 cells stably transfected with TLR4 and a NF-κB reporter gene were transiently transfected with plasmids encoding for either MD-2, MD-2s or CD14 as shown. 24 h later, cells were left untreated or stimulated with LPS (250 ng/ml) for 6 h. Mean relative stimulation of luciferase activity±SD for a representative experiment, each performed in triplicate, is shown. (C) and (D) Supernatants were also collected and measured for IL-8 secretion.
(A) HEK293 cells were transiently transfected with plasmids encoding TLR4 and a NF-κB reporter gene in combination with MD-2 and MD-2s as indicated. 24 h later, cells were left untreated or incubated with LPS (250 ng/ml) for 5 h. Mean relative stimulation of luciferase activity±S.D. for a representative experiment from three separate experiments, each performed in triplicate, is shown. (B) HEK-293 cells stably transfected with TLR4 and a NF-κB reporter gene were treated with supernatants containing either MD-2 and MD-2s as depicted and left untreated or incubated with LPS for 24 h. Mean relative stimulation of luciferase activity±S.D. for a representative experiment from three separate experiments, each performed in triplicate, is shown.
HEK293 cells were transiently transfected with the expression vectors noted in combination with constructs encoding the NF-κB- and IL-8-luciferase reporter gene, and either the β-galactosidase gene or the phRL-TK report gene to normalize for transfection efficiency. In all cases, total DNA concentration was kept constant by supplementation with empty vector control. Following overnight incubation, cells were stimulated for 6 hours with 50 ng/ml LPS and then lysed, and luciferase activity was measured as described previously (Ohta et al. (2004) BIOCHEM BIOPHYS RES COMMUN 323, 1103-1108). Data are shown as mean±SD of three or more independent experiments and are reported as a percentage of LPS-stimulated NF-κB and IL-8 promoter activity, or relative luciferase activity.
(§2) The requirement for MD-2s in LPS mediated NF-κB activation was assessed. It has been shown that the soluble form of wild-type MD-2 confers LPS responsiveness to cells expressing TLR4; therefore, it was investigated if soluble MD-2s was also bioactive. Culture supernatants were obtained from HEK293 cells transiently expressing control vector, MD-2, or MD-2s, and incubated with HEK293 cells stably transfected with TLR4 and an NF-κB-dependent luciferase reporter gene.
MD-2s was tested to see if it needed to be transiently expressed in TLR4 reporter cells in order to mediate NF-κB activation following LPS stimulation. HEK293 cells stably transfected with TLR4 and an NF-κB-dependent luciferase reporter gene were transiently transfected with plasmids encoding CD14 in combination with either MD-2 or MD-2s, and subsequently treated with LPS.
HEK293 cells were transiently transfected with plasmids encoding CD14, TLR4, and wild-type MD-2 in conjunction with a plasmid encoding the NF-κB-dependent luciferase reporter gene in the presence or absence of a plasmid encoding MD-2s. […] Furthermore, we assessed the inhibitory role of soluble MD-2s following LPS stimulation. HEK293 cells stably transfected with TLR4 and an NF-κB-dependent luciferase reporter gene were incubated with supernatants obtained from HEK293 cells transiently expressing a constant amount of MD-2 with increasing concentrations of MD-2s.

[2] = target: T1, TLR4; assay: Co-immunoprecipitation with Flag-tagged TLR4 in HEK293 cells; type: binding; conditions: Myc-tagged protein, anti-Flag co-immunoprecipitation
Procedure: (A) Cells stably expressing CFP-tagged TLR4 were transiently transfected with plasmids encoding wild-type MD-2 (upper panels) or MD-2s (lower panels). 24 h later, cells were incubated with an anti-Myc antibody and cross-liked with Alexa 647-conjugated anti-mouse polyclonal secondary antibody. (B) HEK293 cells were transiently transfected with a plasmid encoding for Flag-tagged TLR4 (lane 2) and cotransfected with either a Myc-tagged MD-2 (lane 3) or a Myc-tagged MD-2s (lanes 1 and 4) expressing plasmid. Co-immunoprecipitation experiments were then performed using an anti-Flag antibody (lanes 2-4) or an IgG isotype control antibody (lane 1). Samples were fractionated by SDS-PAGE and immunoblotting with an anti-Myc antibody was performed. Experiment shown is representative of 4 separate experiments.
HEK 293 cells were seeded into 100 mm dishes (1.5×10^6) 24 h prior to transfection. Transfections were performed according to the manufacturer's instructions using lipofectamine. […] For immunoblotting, primary antibodies were detected using horseradish peroxidase-conjugated secondary antibodies, followed by enhanced chemiluminescence (Amersham Biosciences).
To address this possibility, co-localization studies to examine the cellular distribution of MD-2s with respect to TLR4 were performed. […] Next whether MD-2s is physically associated with TLR4 was assessed. […]

[3] = target: T1, TLR4; assay: IL-8 secretion by HEK293 TLR4 reporter cells after LPS; type: cell-based
Procedure: as §1
as §2, with “gene. […]” for “gene.”

Row | Molecule | LPS-dependent NF-κB activation conferred by soluble protein ([1]; LPS 24 h) | LPS-mediated NF-κB activation on transient expression [1] | Interaction with TLR4 [2] | LPS-dependent IL-8 secretion conferred by soluble protein ([3]; culture supernatants added to HEK293 TLR4 reporter cells) | LPS-mediated IL-8 secretion on transient expression ([3]; plasmid transfected with CD14 into HEK293 TLR4/NF-κB reporter cells) | Effect on LPS-induced NF-κB activation mediated by MD-2/TLR4 ([1]; MD-2s plasmid co-transfected with CD14, TLR4, wild-type MD-2 and reporter, LPS 250 ng/ml 5 h) | Effect of soluble form on LPS-induced NF-κB activation ([1]; supernatants with constant MD-2 and increasing MD-2s on TLR4/NF-κB reporter cells, LPS 24 h)
1 | MD-2: full-length human wild-type MD-2, co-receptor of TLR4 [reference compound] | strongly activated NF-κB | activated NF-κB | – | – | – | – | –
2 | MD-2s: alternatively spliced isoform of human MD-2 lacking exon 2, with D38G substitution; expressed and secreted protein sequences in Table 1 (protein, listed as Homo sapiens) chain 1: MLPFLFFSTLFSSIFTEAQKQYWVCNSSDASISYTYCGRDLKQLYFNLYITVNTMNLPKRKEVICRGSDDDYSFCRALKGETVNTTISFSFKGIKFSKGKYKCVVEAISGSPEEMLFCLEFVILHQPNSN chain 2: EAQKQYWVCNSSDASISYTYCGRDLKQLYFNLYITVNTMNLPKRKEVICRGSDDDYSFCRALKGETVNTTISFSFKGIKFSKGKYKCVVEAISGSPEEMLFCLEFVILHQPNSN | could not confer LPS responsiveness | unable to induce LPS-mediated NF-κB activation | direct interaction between MD-2s and TLR4 was observed | could not confer LPS responsiveness | unable to induce | significantly inhibited | inhibits NF-κB activation

Source: patent US9512196B2, “Short-form human MD-2 as a negative regulator of toll-like receptor 4 signaling” (Cedars-Sinai Medical Center, priority 2008, dated 2016)
